Data: PMC3898201

How the values were obtained:
[1] = biological target: proteasome catalytic subunit β2 (in the purified rabbit 20S constitutive proteasome) (rabbit); assay: FRET or BRET
[2] = biological target: proteasome catalytic subunit β5 (in the purified rabbit 20S constitutive proteasome) (rabbit); assay: FRET or BRET

“proteasome catalytic subunit β1 (in the purified rabbit 20S constitutive proteasome) (natural protein)” showed an FRET efficiency E [1] of 0.18, an FRET efficiency E [2] of 0.55 and an FRET efficiency E (fluorophores swapped: LKSCy3:UKPCy5) [2] of 0.55.

“proteasome catalytic subunit β5 (in the purified rabbit 20S constitutive proteasome) (natural protein)” showed an FRET efficiency E [1] of 0.45.
